This passage reports IC50 of PRC2-catalyzed methylation of oligonucleosomes, in vitro methyltransferase assay, EZHIP titrated results from publication PMC6513997.

The test addresses native PRC2 purified from HeLa cells expressing FLAG-tagged EZH2 (not stated | human (endogenous in HeLa)) (UniProt Q15910).

Chain of native PRC2 purified from HeLa cells expressing FLAG-tagged EZH2 (not stated | human (endogenous in HeLa)) (Q15910 whole entry, chain 1 of 4): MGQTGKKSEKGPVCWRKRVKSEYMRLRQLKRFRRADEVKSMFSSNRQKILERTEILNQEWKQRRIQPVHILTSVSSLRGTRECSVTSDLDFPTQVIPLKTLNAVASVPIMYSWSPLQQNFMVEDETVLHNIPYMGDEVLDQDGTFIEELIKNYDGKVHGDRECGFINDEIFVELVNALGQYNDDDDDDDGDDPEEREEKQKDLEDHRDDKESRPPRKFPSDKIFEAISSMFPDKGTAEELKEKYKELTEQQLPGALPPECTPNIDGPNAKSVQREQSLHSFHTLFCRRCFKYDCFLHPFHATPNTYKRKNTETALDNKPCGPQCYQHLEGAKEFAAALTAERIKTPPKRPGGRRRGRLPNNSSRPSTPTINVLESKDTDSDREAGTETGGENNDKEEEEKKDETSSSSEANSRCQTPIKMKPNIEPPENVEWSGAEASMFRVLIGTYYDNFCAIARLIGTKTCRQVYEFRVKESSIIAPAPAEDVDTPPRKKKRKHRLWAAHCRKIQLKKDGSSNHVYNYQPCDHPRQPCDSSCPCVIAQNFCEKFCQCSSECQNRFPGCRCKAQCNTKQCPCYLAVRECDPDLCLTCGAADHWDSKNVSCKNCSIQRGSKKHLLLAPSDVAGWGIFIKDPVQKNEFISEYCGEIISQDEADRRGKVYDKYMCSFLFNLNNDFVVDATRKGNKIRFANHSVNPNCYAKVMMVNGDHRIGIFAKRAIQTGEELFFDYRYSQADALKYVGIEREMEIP
Chain of native PRC2 purified from HeLa cells expressing FLAG-tagged EZH2 (not stated | human (endogenous in HeLa)) (Q15022 whole entry, chain 2 of 4, further chain): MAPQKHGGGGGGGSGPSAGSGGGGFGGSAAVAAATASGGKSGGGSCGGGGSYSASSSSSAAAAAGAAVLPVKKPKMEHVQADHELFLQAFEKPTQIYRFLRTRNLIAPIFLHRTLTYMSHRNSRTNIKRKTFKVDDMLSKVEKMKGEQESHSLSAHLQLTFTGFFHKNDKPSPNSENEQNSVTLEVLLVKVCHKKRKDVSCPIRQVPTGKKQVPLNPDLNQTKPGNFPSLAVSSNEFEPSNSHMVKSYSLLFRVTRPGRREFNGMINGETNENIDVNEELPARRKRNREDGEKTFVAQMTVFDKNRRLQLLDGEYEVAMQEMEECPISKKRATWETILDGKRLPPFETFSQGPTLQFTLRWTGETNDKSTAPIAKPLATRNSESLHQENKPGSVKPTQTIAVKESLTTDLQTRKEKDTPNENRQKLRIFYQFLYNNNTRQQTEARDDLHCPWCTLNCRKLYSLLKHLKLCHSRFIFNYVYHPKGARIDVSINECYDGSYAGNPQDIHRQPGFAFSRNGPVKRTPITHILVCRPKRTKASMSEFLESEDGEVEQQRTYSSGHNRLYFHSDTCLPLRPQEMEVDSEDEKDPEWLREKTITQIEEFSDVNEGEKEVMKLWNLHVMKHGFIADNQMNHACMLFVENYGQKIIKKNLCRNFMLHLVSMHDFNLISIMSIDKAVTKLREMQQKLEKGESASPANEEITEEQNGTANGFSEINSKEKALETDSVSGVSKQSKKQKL
Chain of native PRC2 purified from HeLa cells expressing FLAG-tagged EZH2 (not stated | human (endogenous in HeLa)) (O75530 2-441, chain 3 of 4, further chain): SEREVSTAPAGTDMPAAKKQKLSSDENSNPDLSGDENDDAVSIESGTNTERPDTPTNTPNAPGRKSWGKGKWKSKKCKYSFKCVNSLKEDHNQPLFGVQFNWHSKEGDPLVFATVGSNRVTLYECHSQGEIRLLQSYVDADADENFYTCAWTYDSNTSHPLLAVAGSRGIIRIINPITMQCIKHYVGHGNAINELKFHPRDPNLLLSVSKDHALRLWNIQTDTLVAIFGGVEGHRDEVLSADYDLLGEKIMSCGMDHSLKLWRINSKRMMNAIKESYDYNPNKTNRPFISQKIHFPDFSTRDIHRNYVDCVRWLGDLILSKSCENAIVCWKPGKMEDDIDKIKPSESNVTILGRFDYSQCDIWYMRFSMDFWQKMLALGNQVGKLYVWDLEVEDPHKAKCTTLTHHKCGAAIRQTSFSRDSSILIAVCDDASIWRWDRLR
Chain of native PRC2 purified from HeLa cells expressing FLAG-tagged EZH2 (not stated | human (endogenous in HeLa)) (Q09028 2-425, chain 4 of 4, further chain): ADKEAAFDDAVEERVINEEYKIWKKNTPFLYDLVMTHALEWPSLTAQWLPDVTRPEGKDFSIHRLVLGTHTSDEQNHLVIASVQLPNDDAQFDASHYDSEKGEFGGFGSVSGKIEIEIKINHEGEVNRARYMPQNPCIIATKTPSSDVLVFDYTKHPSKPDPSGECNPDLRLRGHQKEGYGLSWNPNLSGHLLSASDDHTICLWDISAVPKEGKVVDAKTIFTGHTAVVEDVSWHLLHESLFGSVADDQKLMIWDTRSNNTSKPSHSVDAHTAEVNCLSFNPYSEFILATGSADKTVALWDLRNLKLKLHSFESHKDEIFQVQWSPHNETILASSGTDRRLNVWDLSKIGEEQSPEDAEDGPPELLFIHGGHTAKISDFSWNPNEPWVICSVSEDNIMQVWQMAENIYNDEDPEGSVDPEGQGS
Chain of full length recombinant EZHIP WT, 6x-His-tagged (natural protein) (Q86X51 whole entry): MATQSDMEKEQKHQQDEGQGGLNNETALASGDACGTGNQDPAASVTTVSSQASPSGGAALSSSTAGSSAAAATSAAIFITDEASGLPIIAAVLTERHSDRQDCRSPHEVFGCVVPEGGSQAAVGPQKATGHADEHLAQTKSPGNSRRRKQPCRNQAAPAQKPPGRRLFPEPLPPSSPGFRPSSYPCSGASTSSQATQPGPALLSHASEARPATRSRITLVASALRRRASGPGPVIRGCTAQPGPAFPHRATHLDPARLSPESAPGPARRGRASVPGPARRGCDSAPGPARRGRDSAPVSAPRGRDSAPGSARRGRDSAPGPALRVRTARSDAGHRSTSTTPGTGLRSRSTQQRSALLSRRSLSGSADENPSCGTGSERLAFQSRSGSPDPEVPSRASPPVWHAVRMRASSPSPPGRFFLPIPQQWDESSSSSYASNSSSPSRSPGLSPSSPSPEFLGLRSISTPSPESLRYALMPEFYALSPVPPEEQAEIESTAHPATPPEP

Turning to “full length recombinant EZHIP WT, 6x-His-tagged (natural protein)”, the IC50 of PRC2-catalyzed methylation of oligonucleosomes, in vitro methyltransferase assay, EZHIP titrated came out at 50 nM.
